{"source": "paper PMC5864754", "about": "“Cryo-EM structure of the polycystic kidney disease-like channel PKD2L1” (Nature Communications, 2018)", "proteins": {"B1": {"name": "PKD2L1 (residues 64–629) (domain or fragment, mouse, UniProt A2A259 64-629, looked up)", "chain": "TLVSSCCLHICRSIRGLWGTTLTENTAENRELYVKTTLRELVVYIVFLVDICLLTYGMTSSSAYYYTKVMSELFLHTPSDSGVSFQTISSMSDFWDFAQGPLLDSLYWTKWYNNQSLGRGSHSFIYYENLLLGAPRLRQLRVRNDSCVVHEDFREDILNCYDVYSPDKEDQLPFGPQNGTAWTYHSQNELGGSSHWGRLTSYSGGGYYLDLPGSRQASAEALQGLQEGLWLDRGTRVVFIDFSVYNANINLFCILRLVVEFPATGGTIPSWQIRTVKLIRYVNNWDFFIVGCEVVFCVFIFYYVVEEILEIHLHRLRYLSSVWNILDLVVILLSIVAVGFHIFRTLEVNRLMGKLLQQPDTYADFEFLAFWQTQYNNMNAVNLFFAWIKIFKYISFNKTMTQLSSTLARCAKDILGFAIMFFIVFFAYAQLGYLLFGTQVENFSTFVKCIFTQFRIILGDFDYNAIDNANRILGPVYFVTYVFFVFFVLLNMFLAIINDTYSEVKEELAGQKDQLQLSDFLKQSYNKTLLRLRLRKERVSDVQKVLKGGEPEIQFEDFTSTLRELG", "modifications": "oligosaccharides identified on N241 and N207; glycosylation site N177", "notes": "Mus musculus PKD2L1, residues 64-629; lacks the EF hand and the coiled-coil domain; residues 101-563 are visible in the structure; Homotetrameric channel; Cloned in a pCAG vector; also called PKD2L1_64–629; truncated PKD2L1; source: exchanged into amphipols"}}, "biological_target": "the molecule itself", "assay": "cryo-EM structure; purified PKD2L1 (64-629) in amphipols, 20 mM HEPES pH 7.5, 150 mM NaCl, about 5 mg/ml; C4 symmetry applied; 3.38 Å"}
{"protein": "B1", "values": [{"measurement": "stoichiometry N", "value": 4}]}
